Here are results for eight molecules from patent US20250250357A1 (NANJING ZAIMING PHARMACEUTICAL, published 2025).

The target in assay [1] is T1, human MSLN-R3 protein (human, UniProt Q13421 487-598).
T1 construct: also called hMSLN-R3
Put plainly: ELISA on coated antigen, antibody 10 nM. A general note: In an ELISA, binding on a coated surface is turned into a signal by an enzyme label.

In assay [2] the target is T2, human MSLN-hFc protein (Acro, Cat. No. MSN-H5253) (human, UniProt Q13421 296-580).
T2 construct: the method names the coated protein as human MSLN-hFc (Acro); also called human MSLN full-length protein
T2 sequence (Q13421 other isoform, or with tags, fused parts or gaps limits assumed): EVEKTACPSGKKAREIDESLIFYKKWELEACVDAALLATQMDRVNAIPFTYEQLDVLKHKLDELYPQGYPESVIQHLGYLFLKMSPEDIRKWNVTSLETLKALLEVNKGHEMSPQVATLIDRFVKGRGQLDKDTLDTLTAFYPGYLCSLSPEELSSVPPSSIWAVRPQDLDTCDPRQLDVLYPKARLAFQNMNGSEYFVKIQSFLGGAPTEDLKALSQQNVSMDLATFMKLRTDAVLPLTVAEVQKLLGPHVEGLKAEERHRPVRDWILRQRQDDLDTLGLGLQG
Kind of assay: ELISA on coated antigen, antibody 1 nM.

Assay [3] concerns the target T1, human MSLN-R3 protein. Put plainly: ELISA on coated antigen, antibody 0.001 nM.
The target of assay [4] is T2, human MSLN-hFc protein (Acro, Cat. No. …). Put plainly: ELISA on coated antigen, antibody 0.0001 nM.
For assay [5] the target is unchanged. Put plainly: ELISA on coated antigen, antibody 10 nM.
The target in assay [6] is T1, human MSLN-R3 protein. Put plainly: ELISA on coated antigen, antibody 0.01 nM.
Assay [7] has as its target T1, human MSLN-R3 protein. Kind of assay: ELISA on coated antigen, antibody 1 nM.
Assay [8] addresses T2, human MSLN-hFc protein (Acro, Cat. No. …). Kind of assay: ELISA on coated antigen, antibody 100 nM.
In assay [9] the target is T1, human MSLN-R3 protein. Put plainly: ELISA on coated antigen, antibody 100 nM.
Assay [10] concerns the target T1, human MSLN-R3 protein. Put plainly: ELISA on coated antigen, antibody 0.0001 nM.
Assay [11] concerns the target T2, human MSLN-hFc protein (Acro, Cat. No. …). Kind of assay: ELISA on coated antigen, antibody 0.1 nM.
For assay [12], the target named is T1, human MSLN-R3 protein. Put plainly: ELISA on coated antigen, antibody 0.1 nM.
Assay [13] concerns the target T2, human MSLN-hFc protein (Acro, Cat. No. …). Kind of assay: ELISA on coated antigen, antibody 0.01 nM.
For assay [14] the target is unchanged. Put plainly: ELISA on coated antigen, antibody 0.001 nM.

T1 sequence (Q13421 495-606, form in doubt): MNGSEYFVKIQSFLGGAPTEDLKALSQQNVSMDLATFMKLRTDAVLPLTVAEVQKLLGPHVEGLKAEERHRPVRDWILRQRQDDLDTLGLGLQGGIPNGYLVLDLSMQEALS

B1: F7.33.24-H2 (scFv, not shown: small tags and cut ends)
scFv: EVQLVQSGAEVKKPGASVKVSCKASGYTFTSYWMHWVRQAPGQRLEWMGNVNPSNGGSNYNEKFKNRVTITVDKSASTAYMELSSLRSEDTAVYYCAPHYIGSRPGFAYWGQGTLVTVSSGGGGSGGGGSGGGGSDIVMTQTPLSLSVTPGQPASISCKASQNVGTNIAWYLQKPGQSPQALIYSASYRYSGVPDRFSGSGSGTDFTLKISRVEAEDVGVYYCQQYNSYPLTFGGGTKVEIK
notes: also called S009-F7.33.24 humanized antibody VH1 + VL2
With B1, the OD450 was determined as 1.62 OD450 in the assay with human MSLN-R3 protein [1]; 0.4 OD450 in [2]; 0.04 OD450 with human MSLN-R3 protein [3]; 0.05 OD450 in assay [4]; 2.07 OD450 in [5]; 0.04 OD450 in the assay with human MSLN-R3 protein [6]. Also, the OD450 with human MSLN-R3 protein [7] came to 0.42 OD450; in [8] it was 2.91 OD450; in the assay with human MSLN-R3 protein [9], 1.9 OD450; with human MSLN-R3 protein [10], 0.04 OD450; in assay [11], 0.08 OD450; with human MSLN-R3 protein [12], 0.06 OD450. The OD450 in assay [13] and in assay [14] was 0.05 OD450 in each case.

B2: F7.33.24-H5 (scFv, not shown: small tags and cut ends)
scFv: EVQLVQSGAEVKKPGASVKVSCKASGYTFTSYWMHWVRQAPGQRLEWMGNVNPSSGGSNYNEKFKNRVTITVDKSASTAYMELSSLRSEDTAVYYCAPHYIGSRPGFAYWGQGTLVTVSSGGGGSGGGGSGGGGSDIVMTQTPLSLSVTPGQPASISCKASQNVGTNIAWYLQKPGQSPQALIYSASYRYSGVPDRFSGSGSGTDFTLKISRVEAEDVGVYYCQQYNSYPLTFGGGTKVEIK
notes: also called S009-F7.33.24 humanized antibody VH1a + VL2
With B2, the OD450 with human MSLN-R3 protein [1] worked out at 1.53 OD450; in [2], 0.33 OD450; with human MSLN-R3 protein [3], 0.04 OD450; in assay [4], 0.05 OD450; in assay [5], 1.91 OD450; with human MSLN-R3 protein [6] it was 0.04 OD450. The OD450 with human MSLN-R3 protein [7] came to 0.39 OD450; in assay [8] it was 2.85 OD450; in the assay with human MSLN-R3 protein [9], 1.92 OD450; with human MSLN-R3 protein [10], 0.04 OD450; in assay [11] it was 0.07 OD450; with human MSLN-R3 protein [12], 0.06 OD450. The OD450 in assay [13] turned out to be 0.04 OD450; in [14], 0.05 OD450.

B3: F7.33.24-H6 (scFv, not shown: small tags and cut ends)
scFv: EVQLVQSGAEVKKPGASVKVSCKASGYTFTSYWMHWVRQAPGQRLEWMGNVNPSSGGSNYNEKFKNRVTITVDKSASTAYMELSSLRSEDTAVYYCAPHYIGSRPGFAYWGQGTLVTVSSGGGGSGGGGSGGGGSDIVMTQTPLSLSVTPGQPASISCKASQNVGTNIAWYQQKPGQSPQALIYSASYRYSGVPDRFSGSGSGTDFTLKISRVEAEDVGVYYCQQYNSYPLTFGGGTKVEIK
notes: also called S009-F7.33.24 humanized antibody VH1a + VL3
Take B3: the OD450 is 1.74 OD450 in the assay with human MSLN-R3 protein [1]; 0.45 OD450 in assay [2]; 0.04 OD450 with human MSLN-R3 protein [3]; 0.05 OD450 in assay [4]; 2.36 OD450 in assay [5]; 0.04 OD450 with human MSLN-R3 protein [6]. In addition, the OD450 with human MSLN-R3 protein [7] is 0.53 OD450; in assay [8] it was 2.96 OD450; with human MSLN-R3 protein [9] it was 1.98 OD450; with human MSLN-R3 protein [10], 0.04 OD450; in assay [11], 0.08 OD450; in the assay with human MSLN-R3 protein [12], 0.07 OD450. Moreover, the OD450 in assay [13] and in [14] was 0.05 OD450 throughout.

B4: F7.33.24-H3 (scFv, not shown: small tags and cut ends)
scFv: EVQLVQSGAEVKKPGASVKVSCKASGYTFTSYWMHWVRQAPGQRLEWMGNVNPSNGGSNYNEKFKNRVTITVDKSASTAYMELSSLRSEDTAVYYCAPHYIGSRPGFAYWGQGTLVTVSSGGGGSGGGGSGGGGSDIVMTQTPLSLSVTPGQPASISCKASQNVGTNIAWYQQKPGQSPQALIYSASYRYSGVPDRFSGSGSGTDFTLKISRVEAEDVGVYYCQQYNSYPLTFGGGTKVEIK
notes: also called S009-F7.33.24 humanized antibody VH1 + VL3
In the case of B4, the OD450 is 1.86 OD450 with human MSLN-R3 protein [1]; 0.91 OD450 in [2]; 0.04 OD450 with human MSLN-R3 protein [3]; 0.05 OD450 in assay [4]; 2.58 OD450 in assay [5]; 0.04 OD450 with human MSLN-R3 protein [6]. Further, the OD450 is 0.89 OD450 with human MSLN-R3 protein [7]; 2.93 OD450 in assay [8]; 1.91 OD450 with human MSLN-R3 protein [9]; 0.04 OD450 with human MSLN-R3 protein [10]; 0.13 OD450 in assay [11]; 0.13 OD450 with human MSLN-R3 protein [12]. The OD450 amounted to 0.06 OD450 in assay [13] and 0.05 OD450 in assay [14].

B5: F7.33.24-H8 (scFv, not shown: small tags and cut ends)
scFv: EVQLVQSGAEVKKPGASVKVSCKASGYTFTSYWMHWVRQAPGQGLEWMGNVNPSNGGSNYNEKFKNRVTITVDKSASTAYMELSSLRSEDTAVYYCAPHYIGSRPGFAYWGQGTLVTVSSGGGGSGGGGSGGGGSDIVMTQTPLSLSVTPGQPASISCKASQNVGTNIAWYLQKPGQSPQALIYSASYRYSGVPDRFSGSGSGTDFTLKISRVEAEDVGVYYCQQYNSYPLTFGGGTKVEIK
notes: also called S009-F7.33.24 humanized antibody VH2 + VL2
For the molecule B5, the OD450 with human MSLN-R3 protein [1] worked out at 1.92 OD450; in assay [2] it was 0.48 OD450; with human MSLN-R3 protein [3], 0.04 OD450; in assay [4] it was 0.05 OD450; in [5], 2.04 OD450; with human MSLN-R3 protein [6], 0.05 OD450. Further, the OD450 with human MSLN-R3 protein [7] is 0.63 OD450; in assay [8], 2.7 OD450; with human MSLN-R3 protein [9], 2.16 OD450; with human MSLN-R3 protein [10], 0.05 OD450; in assay [11], 0.09 OD450; with human MSLN-R3 protein [12] it was 0.09 OD450. Besides, the OD450 in [13] and in [14] was 0.05 OD450 in each case.

B6: F7.33.24-H9 (scFv, not shown: small tags and cut ends)
scFv: EVQLVQSGAEVKKPGASVKVSCKASGYTFTSYWMHWVRQAPGQGLEWMGNVNPSNGGSNYNEKFKNRVTITVDKSASTAYMELSSLRSEDTAVYYCAPHYIGSRPGFAYWGQGTLVTVSSGGGGSGGGGSGGGGSDIVMTQTPLSLSVTPGQPASISCKASQNVGTNIAWYQQKPGQSPQALIYSASYRYSGVPDRFSGSGSGTDFTLKISRVEAEDVGVYYCQQYNSYPLTFGGGTKVEIK
notes: also called S009-F7.33.24 humanized antibody VH2 + VL3
With B6, the OD450 with human MSLN-R3 protein [1] worked out at 2.08 OD450; in assay [2], 0.66 OD450; with human MSLN-R3 protein [3] it was 0.04 OD450; in assay [4] it was 0.05 OD450; in assay [5], 2.49 OD450; in the assay with human MSLN-R3 protein [6], 0.05 OD450. Further, the OD450 in the assay with human MSLN-R3 protein [7] came out at 0.82 OD450; in [8], 2.78 OD450; in the assay with human MSLN-R3 protein [9] it was 2.25 OD450; with human MSLN-R3 protein [10], 0.04 OD450; in assay [11], 0.1 OD450; in the assay with human MSLN-R3 protein [12] it was 0.11 OD450. The OD450 is 0.05 OD450 in assay [13] and 0.04 OD450 in assay [14].

B7: F7.33.24-H7 (scFv, not shown: small tags and cut ends)
scFv: EVQLVQSGAEVKKPGASVKVSCKASGYTFTSYWMHWVRQAPGQGLEWMGNVNPSNGGSNYNEKFKNRVTITVDKSASTAYMELSSLRSEDTAVYYCAPHYIGSRPGFAYWGQGTLVTVSSGGGGSGGGGSGGGGSDIVMTQSPDSLAVSLGERATINCKASQNVGTNIAWYQQKPGQSPKALIYSASYRYSGVPDRFSGSGSGTDFTLTISSLQAEDVAVYYCQQYNSYPLTFGGGTKVEIK
notes: also called S009-F7.33.24 humanized antibody VH2 + VL1
Turning to B7, the OD450 with human MSLN-R3 protein [1] worked out at 1.52 OD450; in [2] it was 0.48 OD450; with human MSLN-R3 protein [3], 0.04 OD450; in assay [4], 0.05 OD450; in assay [5] it was 2.32 OD450; in the assay with human MSLN-R3 protein [6], 0.04 OD450. Further, the OD450 turned out to be 0.33 OD450 with human MSLN-R3 protein [7]; 2.79 OD450 in assay [8]; 1.95 OD450 in the assay with human MSLN-R3 protein [9]; 0.04 OD450 with human MSLN-R3 protein [10]; 0.1 OD450 in [11]; 0.06 OD450 with human MSLN-R3 protein [12]. In addition, the OD450 in assay [13] was determined as 0.05 OD450; in [14] it was 0.06 OD450.

B8: F7.33.24-H10 (scFv, not shown: small tags and cut ends)
scFv: EVQLVQSGAEVKKPGASVKVSCKASGYTFTSYWMHWVRQAPGQGLEWMGNVNPSNAGSNYNEKFKNRVTITVDKSASTAYMELSSLRSEDTAVYYCAPHYIGSRPGFAYWGQGTLVTVSSGGGGSGGGGSGGGGSDIVMTQSPDSLAVSLGERATINCKASQNVGTNIAWYQQKPGQSPKALIYSASYRYSGVPDRFSGSGSGTDFTLTISSLQAEDVAVYYCQQYNSYPLTFGGGTKVEIK
notes: also called S009-F7.33.24 humanized antibody VH2a + VL1
With B8, the OD450 with human MSLN-R3 protein [1] worked out at 1.85 OD450; in assay [2] it was 0.51 OD450; with human MSLN-R3 protein [3], 0.05 OD450; in [4] it was 0.04 OD450; in [5], 2.28 OD450; with human MSLN-R3 protein [6] it was 0.04 OD450. Moreover, the OD450 with human MSLN-R3 protein [7] came out at 0.55 OD450; in assay [8] it was 3.03 OD450; in the assay with human MSLN-R3 protein [9] it was 2.26 OD450; with human MSLN-R3 protein [10] it was 0.05 OD450; in [11], 0.09 OD450; with human MSLN-R3 protein [12], 0.08 OD450. Moreover, the figures for the OD450 in [13] and in assay [14] were 0.05 OD450 and 0.04 OD450, respectively.
